Assay results as given in patent publication US20110086770A1.

B1: 014-42.3D10 ATRIMER (designed binder, part only; not given: nothing essential, part only)
chain, part: EPPTQKPKKIVNAKKDVVNTKMFEELKSRLDTLAQEVALLKEQQALQTVCLKGTKVHMKCFLAFTQTKTFHEASEDCISRGGTLSTPQTGSENDALYEYLRQSVGNEAEIWLGLNVDMTGARIAYKNWETEITAQPCAVLSGAANGKWFDKRCRDQLPYICQFGIV
B2: 4a8c (=A3C) DR 5 ATRIMER (designed binder, from a related filing, part only)
chain: EPPTQKPKKIVNAKKDVVNTKMFEELKSRLDTLAQEVALLKEQQALQTVCLKGTKVHMKCFLAFTQTKTFHEASEDCISRGGTLSTPQTGSENDALYEYLRQSVGNEAEIWLGLNRATLRPRWVDMTGARIAYKNWETEITAQPDGGKNCAVLSGAANGKWFDKRCRDQLPYICQFGIV
B3: 014-42.3B8 ATRIMER (designed binder, part only; not given: nothing essential, part only)
chain, part: EPPTQKPKKIVNAKKDVVNTKMFEELKSRLDTLAQEVALLKEQQALQTVCLKGTKVHMKCFLAFTQTKTFHEASEDCISRGGTLSTPQTGSENDALYEYLRQSVGNEAEIWLGLNVDMTGARIAYKNWETEITAQPCAVLSGAANGKWFDKRCRDQLPYICQFGIV

Key:
[1] = target: T1, recombinant human DR 4 receptor Fc fusion protein (R&D Systems) (human); assay: SPR (Biacore), captured DR4/Fc
T1 sequence (O00220 whole entry, looked up): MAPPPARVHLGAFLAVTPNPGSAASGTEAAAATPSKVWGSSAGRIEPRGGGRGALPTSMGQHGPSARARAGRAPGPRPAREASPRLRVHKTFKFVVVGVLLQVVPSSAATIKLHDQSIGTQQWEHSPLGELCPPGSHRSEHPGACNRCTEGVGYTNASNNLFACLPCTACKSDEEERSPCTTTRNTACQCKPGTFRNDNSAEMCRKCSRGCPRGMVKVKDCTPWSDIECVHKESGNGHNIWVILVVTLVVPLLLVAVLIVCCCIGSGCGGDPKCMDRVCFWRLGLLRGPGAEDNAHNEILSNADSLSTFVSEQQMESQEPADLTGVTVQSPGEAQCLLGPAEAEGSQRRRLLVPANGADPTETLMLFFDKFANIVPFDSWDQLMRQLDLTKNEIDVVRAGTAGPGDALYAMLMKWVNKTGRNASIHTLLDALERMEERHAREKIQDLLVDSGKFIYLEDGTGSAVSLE

[2] = target: recombinant human DR 5 receptor Fc fusion protein (R&D Systems) (human); assay: SPR (Biacore), captured DR5/Fc
Chain of recombinant human DR 5 receptor Fc fusion protein (R&D Systems) (human) (O14763 whole entry, the tested form may be a part): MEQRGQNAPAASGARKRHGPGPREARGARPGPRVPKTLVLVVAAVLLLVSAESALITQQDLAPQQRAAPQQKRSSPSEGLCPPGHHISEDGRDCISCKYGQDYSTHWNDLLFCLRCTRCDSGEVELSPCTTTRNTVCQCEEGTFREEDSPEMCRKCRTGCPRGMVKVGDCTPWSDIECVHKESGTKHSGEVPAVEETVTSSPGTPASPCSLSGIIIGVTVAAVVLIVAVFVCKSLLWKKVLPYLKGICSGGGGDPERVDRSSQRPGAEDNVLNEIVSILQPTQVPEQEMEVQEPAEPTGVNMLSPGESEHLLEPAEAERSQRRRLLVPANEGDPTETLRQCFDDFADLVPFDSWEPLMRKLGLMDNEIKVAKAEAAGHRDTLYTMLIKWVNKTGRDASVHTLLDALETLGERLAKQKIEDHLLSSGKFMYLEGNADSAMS

| Binder | Ka [1] [M⁻¹] | Kd [1] [nM] | koff [1] [s⁻¹] | kon [1] [M⁻¹ s⁻¹] | Ka [2] [M⁻¹] | Kd [2] [nM] | koff [2] [s⁻¹] | kon [2] [M⁻¹ s⁻¹] |
| --- | --- | --- | --- | --- | --- | --- | --- | --- |
| B1 | 6.58e+06 | 152 | 0.00185 | 12200 | – | – | – | – |
| B2 | – | – | – | – | 1.74e+08 | 5.74 | 0.000362 | 63000 |
| B3 | 1.11e+08 | 9.01 | 0.00101 | 112000 | – | – | – | – |
